{"source": "paper doi:10.1101/2021.08.24.457482", "about": "(bioRxiv, 2021)", "binders": {"B1": {"name": "CD72 fused with a V5 epitope tag, expressed in U87MG-ΔNRP-1-CD72+ cells (receptor)", "chain": "MAEAITYADLRFVKAPLKKSISSRLGQDPGADDDGEITYENVQVPAVLGVPSSLASSVLGDKAAVKSEQPTASWRAVTSPAVGRILPCRTTCLRYLLLGLLLTCLLLGVTAICLGVRYLQVSQQLQQTNRVLEVTNSSLRQQLRLKITQLGQSAEDLQGSRRELAQSQEALQVEQRAHQAAEGQLQACQADRQKTKETLQSEEQQRRALEQKLSNMENRLKPFFTCGSADTCCPSGWIMHQKSCFYISLTSKNWQESQKQCETLSSKLATFSEIYPQSHSYYFLNSLLPNGGSGNSYWTGLSSNKDWKLTDDTQRTRTYAQSSKCNKVHKTWSWWTLESESCRSSLPYICEMTAFRFPD"}, "B2": {"name": "modified truncated sema3A (T-sema3A) (ligand)", "chain": "NYQNGKNNVPRLKLSYKEMLESNNVITFNGLANSSSYHTFLLDEERSRLYVGAKDHIFSFDLVNIKDFQKIVWPVSYTRRDECKWAGKDILKECANFIKVLKAYNQTHLYACGTGAFHPICTYIEIGHHPEDNIFKLENSHFENGRGKSPYDPKLLTASLLIDGELYSGTAADFMGRDFAIFRTLGHHHPIRTEQHDSRWLNDPKFISAHLISESDNPEDDKVYFFFRENAIDGEHCGKATHARIGQICKNDFGGHRSLVNKWTTFLKARLICSVPGPNGIDTHFDELQDVFLMNFKDPKNPVVYGVFTTSSNIFKGSAVCMYSMSDVRRVFLGPYAHRDGPNYQWVPYQGRVPYPRPGTCPSKTFGGFDSTKDLPDDVITFARSHPAMYNPVFPMNNRPIVIKTDVNYQFTQIVVDRVDAEDGQYDVMFIGTDVGTVLKVVSIPKETWYDLEEVLLEEMTVFREPTAISAMELSTKQQQLYIGSTAGVAQLPLHR"}, "B3": {"name": "Sema3A fused in frame with alkaline phosphatase (sema3A-AP) (ligand)", "chain": "NYQNGKNNVPRLKLSYKEMLESNNVITFNGLANSSSYHTFLLDEERSRLYVGAKDHIFSFDLVNIKDFQKIVWPVSYTRRDECKWAGKDILKECANFIKVLKAYNQTHLYACGTGAFHPICTYIEIGHHPEDNIFKLENSHFENGRGKSPYDPKLLTASLLIDGELYSGTAADFMGRDFAIFRTLGHHHPIRTEQHDSRWLNDPKFISAHLISESDNPEDDKVYFFFRENAIDGEHSGKATHARIGQICKNDFGGHRSLVNKWTTFLKARLICSVPGPNGIDTHFDELQDVFLMNFKDPKNPVVYGVFTTSSNIFKGSAVCMYSMSDVRRVFLGPYAHRDGPNYQWVPYQGRVPYPRPGTCPSKTFGGFDSTKDLPDDVITFARSHPAMYNPVFPMNNRPIVIKTDVNYQFTQIVVDRVDAEDGQYDVMFIGTDVGTVLKVVSIPKETWYDLEEVLLEEMTVFREPTAISAMELSTKQQQLYIGSTAGVAQLPLHRCDIYGKACAECCLARDPYCAWDGSACSRYFPTAKRRTRRQDIRNGDPLTHCSDLHHDNHHGHSPEERIIYGVENSSTFLECSPKSQRALVYWQFQRRNEERKEEIRVDDHIIRTDQGLLLRSLQQKDSGNYLCHAVEHGFIQTLLKVTLEVIDTEHLEELLHKDDDGDGSKTKEMSNSMTPSQKVWYRDFMQLINHPNLNTMDEFCEQVWKRDRKQRRQRPGHTPGNSNKWKHLQENKKGRNRRTHEFERAPRSV"}}, "key": {"[1]": {"molecular_target": "B3", "experiment": "alkaline phosphatase fusion binding to cells"}, "[2]": {"molecular_target": "the molecule itself", "experiment": "SDS-PAGE with and without reducing agent, western blot"}, "[3]": {"molecular_target": "neuropilin-1 (NRP-1) on parental U87MG cells (human (endogenous in U87MG), UniProt O14786 22-923)", "sequence (O14786 22-923)": "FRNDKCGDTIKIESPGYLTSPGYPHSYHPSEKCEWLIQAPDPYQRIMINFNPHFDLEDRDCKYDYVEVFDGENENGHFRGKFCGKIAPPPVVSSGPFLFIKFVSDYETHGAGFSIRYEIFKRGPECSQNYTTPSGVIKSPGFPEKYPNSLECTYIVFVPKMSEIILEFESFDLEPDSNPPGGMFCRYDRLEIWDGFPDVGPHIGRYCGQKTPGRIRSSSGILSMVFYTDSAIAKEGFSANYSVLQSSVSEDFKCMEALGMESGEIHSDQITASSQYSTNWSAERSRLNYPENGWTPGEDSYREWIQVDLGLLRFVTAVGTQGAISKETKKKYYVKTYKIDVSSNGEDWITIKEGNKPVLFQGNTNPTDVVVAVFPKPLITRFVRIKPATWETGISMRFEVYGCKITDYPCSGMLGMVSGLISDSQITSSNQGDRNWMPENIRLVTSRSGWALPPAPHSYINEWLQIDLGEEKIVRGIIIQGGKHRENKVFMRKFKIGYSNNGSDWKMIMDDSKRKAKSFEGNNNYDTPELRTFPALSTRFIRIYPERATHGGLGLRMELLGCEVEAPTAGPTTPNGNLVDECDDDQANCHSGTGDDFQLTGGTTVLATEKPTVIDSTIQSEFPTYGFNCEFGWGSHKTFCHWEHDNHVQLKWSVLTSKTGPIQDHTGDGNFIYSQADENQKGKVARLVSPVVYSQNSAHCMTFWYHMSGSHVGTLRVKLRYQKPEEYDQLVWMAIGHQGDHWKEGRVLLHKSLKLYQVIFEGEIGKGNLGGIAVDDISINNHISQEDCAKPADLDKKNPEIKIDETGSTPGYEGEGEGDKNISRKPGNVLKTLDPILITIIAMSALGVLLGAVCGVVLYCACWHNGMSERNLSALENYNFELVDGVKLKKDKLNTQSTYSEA", "experiment": "alkaline phosphatase fusion binding to cells"}}, "data": [{"binder": "B1", "values": [{"measurement": "Kd", "setting": "[1]", "value": "~7.62", "unit": "nM"}]}, {"binder": "B2", "values": [{"measurement": "stoichiometry N", "setting": "[2]", "value": 2}]}, {"binder": "B3", "values": [{"measurement": "Kd", "setting": "[3]", "value": "~4.73", "unit": "nM"}]}]}
